B1: ADP-ribosylation factor 6 (Mus musculus), P62331 (parent)
chain: MGKVLSKIFGNKEMRILMLGLDAAGKTTILYKLKLGQSVTTIPTVGFNVETVTYKNVKFNVWDVGGQDKIRPLWRHYYTGTQGLIFVVDCADRDRIDEARQELHRIINDREMRDAIILIFANKQDLPDAMKPHEIQEKLGLTRIRDRNWYVQPSCATSGDGLYEGLTWLTSNYKS
partner: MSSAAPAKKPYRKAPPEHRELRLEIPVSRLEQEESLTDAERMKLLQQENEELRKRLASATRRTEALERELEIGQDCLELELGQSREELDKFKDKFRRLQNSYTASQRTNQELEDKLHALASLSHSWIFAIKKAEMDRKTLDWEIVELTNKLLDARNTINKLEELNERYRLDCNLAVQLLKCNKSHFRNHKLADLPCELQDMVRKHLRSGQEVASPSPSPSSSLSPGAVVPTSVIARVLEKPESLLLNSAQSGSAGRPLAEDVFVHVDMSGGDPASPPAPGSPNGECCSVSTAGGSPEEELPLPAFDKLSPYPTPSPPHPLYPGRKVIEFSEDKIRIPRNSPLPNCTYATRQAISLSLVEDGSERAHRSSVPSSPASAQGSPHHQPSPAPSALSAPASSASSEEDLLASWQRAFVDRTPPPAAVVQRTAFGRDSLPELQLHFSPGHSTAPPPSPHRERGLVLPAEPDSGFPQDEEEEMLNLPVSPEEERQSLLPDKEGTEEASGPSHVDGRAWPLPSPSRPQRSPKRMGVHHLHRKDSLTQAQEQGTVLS

Variants of: B1
Settings: with tjap1_mouse Tjap1, Q9DCD5

Row | Variant | effect of a mutation on the interaction
1 | T44N | disrupting interaction
